From publication PMC5300068, “Flexibility in Mannan-Binding Lectin-Associated Serine Proteases-1 and -2 Provides Insight on Lectin Pathway Activation” (Structure(London, England:1993), 2017)

Target: the molecule itself
Test: AUC; sedimentation velocity, 50,000 rpm, absorbance optics, c(s) analysis; physiological ionic strength, buffers with Ca2+ or EDTA; 0.8-2.2 uM for full-length MASPs; dimer to monomers

B1: rat MASP-2 CUB1-EGF-CUB2 (MASP-2 3D) (domain or fragment)
chain: SKWPEPVFGRLVSLGFPEKYGNHQDRSWTLTAPPGFRLRLYFTHFNLELSYRCEYDFVKLTSGTKVLATLCGQESTDTERAPGNDTFYSLGPSLKVTFHSDYSNEKPFTGFEAFYAAEDVDECRTSLGDSVPCDHYCHNYLGGYYCSCRVGYILHQNKHTCSALCSGQVFTGRSGFLSSPEYPQPYPKLSSCAYNIRLEEGFSITLDFVESFDVEMHPEAQCPYDSLKIQTDKREYGPFCGKTLPPRIETDSNKVTITFTTDESGNHTGWKIHYTSTAQP
modifications: N-glycosylated (glycosylation sites shown in Figure 1)
notes: Homodimer; production details are in the Supplemental Information; source: Chinese hamster ovary cells, purified (gel filtration, Superdex 200 16/60); not shown: His6, C-terminal, kept
stoichiometry N: 2
